In the RNAGym collection of RNA variant scans (doi:10.7554/elife.90254):

B1: LINE1-mini (parent)
chain: GGCAGAGCUCAACACAGCGUGGCAAAGUGGCUGUGGCUAGACUGCC

Variants of: B1
Experiment: self-cleavage, relative activity (ratio to wild type); higher = more cleavage; in vitro, sequencing; the parent is a self-cleaving ribozyme
For C3U G21C, the self-cleavage was 0.47.
G27A C42A gave a self-cleavage of 0.21.
Work on G22C yielded a self-cleavage of 0.78.
Work on G22U C42A yielded a self-cleavage of 0.28.
C18U A39U showed a self-cleavage of 0.78.
With A12G C13A the self-cleavage was 0.07.
With G7C U34C the self-cleavage was 0.06.
With G27C G36A the self-cleavage was 0.35.
For C18A G29C, the self-cleavage was 0.83.
Variant A25G C45U has a self-cleavage of 0.45.
Work on A11G G40U yielded a self-cleavage of 0.03.
Work on G1U A25G yielded a self-cleavage of 0.21.
In the case of A6G U43A, the self-cleavage is reported as 0.15.
With U28A U32G the self-cleavage was 0.3.
With G1U G5A the self-cleavage was 0.2.
A24C G40C showed a self-cleavage of 0.05.
Variant C13A A26G has a self-cleavage of 0.12.
In the case of C13A G36A, the self-cleavage is reported as 0.23.
With U20A C46U the self-cleavage was 0.65.
G2A C13A showed a self-cleavage of 0.36.
For C3A G5C, the self-cleavage was 0.31.
For U9A G27C, the self-cleavage was 0.11.
Variant A16G G17U has a self-cleavage of 0.32.
With G2U G22C the self-cleavage was 0.12.
For C10A A25G, the self-cleavage was 0.04.
Variant G30A C46G has a self-cleavage of 1.5.
Work on U34G yielded a self-cleavage of 0.24.
C8G U28C gave a self-cleavage of 0.46.
A4G G22U gave a self-cleavage of 1.14.
In the case of C15G A26U, the self-cleavage is reported as 0.07.
In the case of A14C U38A, the self-cleavage is reported as 0.21.
Work on U9A C31U yielded a self-cleavage of 0.04.
For C8A G19A, the self-cleavage was 0.38.
With G21A G36C the self-cleavage was 0.1.
For A24G C31G, the self-cleavage was 0.05.
With A39U C46U the self-cleavage was 0.46.
A26C C45G gave a self-cleavage of 0.8.
With C15U G22U the self-cleavage was 0.78.
In the case of A6U C45U, the self-cleavage is reported as 1.18.
In the case of U20A C31G, the self-cleavage is reported as 0.08.
Work on G7A G19U yielded a self-cleavage of 0.11.
Variant G5C G33U has a self-cleavage of 0.06.
In the case of G27C G30A, the self-cleavage is reported as 1.2.
For C3A U43G, the self-cleavage was 0.04.
Variant G27U G29C has a self-cleavage of 0.27.
Variant C10U A26G has a self-cleavage of 0.4.
G1A A14U gave a self-cleavage of 0.27.
In the case of U32C G33U, the self-cleavage is reported as 0.13.
For A6U C45A, the self-cleavage was 0.66.
U34G G40U showed a self-cleavage of 0.05.
In the case of A12C A25U, the self-cleavage is reported as 0.01.
In the case of G22A U38G, the self-cleavage is reported as 0.01.
Variant C10U C45U has a self-cleavage of 0.23.
In the case of U9C G35U, the self-cleavage is reported as 0.03.
G21U U28G gave a self-cleavage of 0.52.
Variant A4C A41U has a self-cleavage of 0.23.
With A24U G36A the self-cleavage was 0.22.
Work on A14U U34G yielded a self-cleavage of 0.75.
For G7U A26C, the self-cleavage was 0.24.
Work on C15U G40U yielded a self-cleavage of 0.12.
Work on C13A C31A yielded a self-cleavage of 0.06.
In the case of G19C A25G, the self-cleavage is reported as 0.26.
For C15A G40C, the self-cleavage was 0.07.
A24U G36U showed a self-cleavage of 0.05.
Variant G5A U28C has a self-cleavage of 0.14.
Work on A24C U28C yielded a self-cleavage of 0.69.
A14U C42A showed a self-cleavage of 0.21.
Work on A16G yielded a self-cleavage of 0.61.
G21C U28A showed a self-cleavage of 0.3.
With U43C G44U the self-cleavage was 0.09.
G2A U20A showed a self-cleavage of 0.88.
G27C G44C showed a self-cleavage of 0.14.
With C23G C37U the self-cleavage was 0.02.
For U34G G44A, the self-cleavage was 0.04.
G21A A24U gave a self-cleavage of 2.52.
For C3G C23U, the self-cleavage was 0.81.
Variant U9C G19C has a self-cleavage of 0.05.
C23U U43G gave a self-cleavage of 0.03.
For G1A A16G, the self-cleavage was 0.25.
Work on U9A A24U yielded a self-cleavage of 0.33.
With G22U G30C the self-cleavage was 2.28.
In the case of G7A G30C, the self-cleavage is reported as 0.42.
In the case of C10A U43C, the self-cleavage is reported as 0.03.
A25C U32A gave a self-cleavage of 0.05.
With G2C G35C the self-cleavage was 0.05.
In the case of C15G G19C, the self-cleavage is reported as 0.13.
G1A U28G showed a self-cleavage of 0.6.
For G2A G22U, the self-cleavage was 0.89.
With U28G G35A the self-cleavage was 0.14.
Variant G1A G27A has a self-cleavage of 1.81.
Work on A6G G35C yielded a self-cleavage of 0.12.
Variant G44U C46G has a self-cleavage of 0.08.
Variant G7U U28G has a self-cleavage of 0.07.
Variant G2A G27U has a self-cleavage of 0.75.
Work on G1C G30C yielded a self-cleavage of 0.04.
Work on G22U A24G yielded a self-cleavage of 1.25.
For U9A A11C, the self-cleavage was 0.02.
Variant A6G C23A has a self-cleavage of 0.11.
For C8U G36C, the self-cleavage was 0.27.
Variant G17U C45A has a self-cleavage of 0.05.
In the case of G1U C3A, the self-cleavage is reported as 0.85.
For A11C U20G, the self-cleavage was 0.04.
Variant G17A G19U has a self-cleavage of 0.25.
In the case of A25U G29U, the self-cleavage is reported as 2.16.
C15A C18U showed a self-cleavage of 0.14.
Variant G21A C37G has a self-cleavage of 0.04.
With G40C C45U the self-cleavage was 0.1.
Variant A6G G44U has a self-cleavage of 0.13.
With G2C A4C the self-cleavage was 0.11.
With A4C A14C the self-cleavage was 0.1.
For G2C A11G, the self-cleavage was 0.02.
A16C G27C showed a self-cleavage of 0.15.
G7U C37A showed a self-cleavage of 0.05.
A25G A41G showed a self-cleavage of 0.26.
Variant C8A A25U has a self-cleavage of 0.36.
G2A C15G gave a self-cleavage of 0.05.
In the case of G35U U43C, the self-cleavage is reported as 0.05.
In the case of A16C G33A, the self-cleavage is reported as 0.07.
For U20A C37G, the self-cleavage was 0.03.
For A6C G27C, the self-cleavage was 0.57.
Work on U34A C42G yielded a self-cleavage of 0.04.
Variant U38C G40A has a self-cleavage of 0.07.
C8U C15G gave a self-cleavage of 0.09.
Work on C15G C42G yielded a self-cleavage of 0.1.
G1C C45A gave a self-cleavage of 0.16.
Work on C8A G21A yielded a self-cleavage of 0.63.
In the case of G30U C37U, the self-cleavage is reported as 0.05.
Work on A14U G19C yielded a self-cleavage of 0.15.
Variant C18U G40A has a self-cleavage of 0.1.
With G7U U43A the self-cleavage was 0.11.
G17C G27U showed a self-cleavage of 1.06.
A6C C31U gave a self-cleavage of 0.22.
A11G U34A gave a self-cleavage of 0.03.
C15U U28A showed a self-cleavage of 1.35.
For G17C G21C, the self-cleavage was 0.61.
Variant G27U A39U has a self-cleavage of 0.56.
For C31U G44A, the self-cleavage was 0.04.
For A24U A25G, the self-cleavage was 1.28.
For G19A A25G, the self-cleavage was 0.58.
A6U G21U gave a self-cleavage of 0.76.
G5U G33U gave a self-cleavage of 0.05.
Work on A14C U28A yielded a self-cleavage of 0.03.
G19C A41U gave a self-cleavage of 0.19.
With A16U G21U the self-cleavage was 0.19.
In the case of C13U G36C, the self-cleavage is reported as 0.11.
Variant G7A C15G has a self-cleavage of 0.12.
For G5C U43G, the self-cleavage was 0.13.
Variant C13G C31A has a self-cleavage of 0.16.
With G1C A14G the self-cleavage was 0.08.
G33C G40C showed a self-cleavage of 0.07.
In the case of C15U U32A, the self-cleavage is reported as 0.09.
C15U A16C showed a self-cleavage of 0.13.
In the case of A12C C45G, the self-cleavage is reported as 0.07.
With G1C C37A the self-cleavage was 0.02.
A24C C37A showed a self-cleavage of 0.03.
Variant A6U A39C has a self-cleavage of 0.51.
A24G G40A gave a self-cleavage of 0.13.
With G2U G30U the self-cleavage was 0.1.
A24U U34C showed a self-cleavage of 0.09.
A26U G35U showed a self-cleavage of 0.16.
A6U G29A gave a self-cleavage of 0.79.
With C23A G35A the self-cleavage was 0.23.
For G1A C46G, the self-cleavage was 2.92.
Work on G36U G40A yielded a self-cleavage of 0.13.
Work on A24G C46A yielded a self-cleavage of 1.75.
A6C G40U gave a self-cleavage of 0.15.
Variant A16C G29C has a self-cleavage of 0.77.
